The results in this text go back to patent US9958461B2, “Detection of protein to protein interactions” (THE GOVERNING COUNCIL OF THE UNIVERSITY OF TORONTO, priority 2013, dated 2018).

Experiment [1] deals with T1, EGFR-L858R (Homo sapiens, UniProt P00533, L858R).
T1 construct: with the advantage of testing full-length integral membrane proteins; (GGGGS)2 linker-Cub (human ubiquitin aa 35-76)-GAL4(1-147)-mNFkB(364-550) (C); expressed in transfected cells
The experiment is described as follows: MaMTH EGFR-interactor screen, lentiviral preys against EGFR-L858R bait (interaction score). In kind it is cell-based. Particulars: MaMTH interaction score of prey with EGFR-L858R bait. A digest of the protocol: (§1)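 5×GAL4UAS-luciferase HEK293T reporter cells were lentivirally infected with preys (MOI ~0.3-0.4) and puromycin-selected ≥48 h. They were then transfected in triplicate with the EGFR bait, and luciferase was read 24 h later. Score is fold-change over averaged negative-control preys; >1 denotes interaction.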

In experiment [2] the test system is EGFR-Wt. The experiment can be described thus: MaMTH EGFR-interactor screen, lentiviral preys against EGFR-wildtype bait (interaction score). In kind it is cell-based, human. Particulars: ratio of EGFR-Wt mean to EGFR-L858R mean interaction score. A digest of the protocol:
as §1

Experiment [3] addresses T2, EGFR-Wt (Homo sapiens, UniProt P00533).
T2 construct: with the advantage of testing full-length integral membrane proteins; (GGGGS)2 linker-Cub (human ubiquitin aa 35-76)-GAL4(1-147)-mNFkB(364-550) (C); expressed in transfected cells
Described as above. The experiment is classed as cell-based. Particulars: MaMTH interaction score of prey with EGFR-Wt bait, mean. The method in brief: as §1

B1: GRB10 (protein, UniProt Q13322 1-594, looked up)
Growth factor receptor-bound …: MALAGCPDSFLHHPYYQDKVEQTPRSQQDPAGPGLPAQSDRLANHQEDDVDLEALVNDMNASLESLYSACSMQSDTVPLLQNGQHARSQPRASGPPRSIQPQVSPRQRVQRSQPVHILAVRRLQEEDQQFRTSSLPAIPNPFPELCGPGSPPVLTPGSLPPSQAAAKQDVKVFSEDGTSKVVEILADMTARDLCQLLVYKSHCVDDNSWTLVEHHPHLGLERCLEDHELVVQVESTMASESKFLFRKNYAKYEFFKNPMNFFPEQMVTWCQQSNGSQTQLLQNFLNSSSCPEIQGFLHVKELGKKSWKKLYVCLRRSGLYCSTKGTSKEPRHLQLLADLEDSNIFSLIAGRKQYNAPTDHGLCIKPNKVRNETKELRLLCAEDEQTRTCWMTAFRLLKYGMLLYQNYRIPQQRKALLSPFSTPVRSVSENSLVAMDFSGQTGRVIENPAEAQSAALEEGHAWRKRSTRMNILGSQSPLHPSTLSTVIHRTQHWFHGRISREESHRIIKQQGLVDGLFLLRDSQSNPKAFVLTLCHHQKIKNFQILPCEDDGQTFFSLDDGNTKFSDLIQLVDFYQLNKGVLPCKLKHHCIRVAL
In experiment [1], B1 yielded an EGFR-L858R mean of 3.49. For the same molecule, in experiment [2], the Wt/L858R amounted to 0.90. In experiment [3], this molecule yielded an EGFR-Wt mean of 3.14.

B2: PRKCE (protein, UniProt Q02156 1-737, looked up)
Protein kinase C epsilon type: MVVFNGLLKIKICEAVSLKPTAWSLRHAVGPRPQTFLLDPYIALNVDDSRIGQTATKQKTNSPAWHDEFVTDVCNGRKIELAVFHDAPIGYDDFVANCTIQFEELLQNGSRHFEDWIDLEPEGRVYVIIDLSGSSGEAPKDNEERVFRERMRPRKRQGAVRRRVHQVNGHKFMATYLRQPTYCSHCRDFIWGVIGKQGYQCQVCTCVVHKRCHELIITKCAGLKKQETPDQVGSQRFSVNMPHKFGIHNYKVPTFCDHCGSLLWGLLRQGLQCKVCKMNVHRRCETNVAPNCGVDARGIAKVLADLGVTPDKITNSGQRRKKLIAGAESPQPASGSSPSEEDRSKSAPTSPCDQEIKELENNIRKALSFDNRGEEHRAASSPDGQLMSPGENGEVRQGQAKRLGLDEFNFIKVLGKGSFGKVMLAELKGKDEVYAVKVLKKDVILQDDDVDCTMTEKRILALARKHPYLTQLYCCFQTKDRLFFVMEYVNGGDLMFQIQRSRKFDEPRSRFYAAEVTSALMFLHQHGVIYRDLKLDNILLDAEGHCKLADFGMCKEGILNGVTTTTFCGTPDYIAPEILQELEYGPSVDWWALGVLMYEMMAGQPPFEADNEDDLFESILHDDVLYPVWLSKEAVSILKAFMTKNPHKRLGCVASQNGEDAIKQHPFFKEIDWVLLEQKKIKPPFKPRIKTKRDVNNFDQDFTREEPVLTLVDEAIVKQINQEEFKGFSYFGEDLMP
In experiment [1], B2 yielded an EGFR-L858R mean of 6.77. The Wt/L858R in experiment [2] came to 0.93. The molecule further displayed an EGFR-Wt mean in experiment [3] of 6.30.

B3: SNX9 (protein, UniProt Q9Y5X1 1-595, looked up)
Sorting nexin-9: MATKARVMYDFAAEPGNNELTVNEGEIITITNPDVGGGWLEGRNIKGERGLVPTDYVEILPSDGKDQFSCGNSVADQAFLDSLSASTAQASSSAASNNHQVGSGNDPWSAWSASKSGNWESSEGWGAQPEGAGAQRNTNTPNNWDTAFGHPQAYQGPATGDDDDWDEDWDGPKSSSYFKDSESADAGGAQRGNSRASSSSMKIPLNKFPGFAKPGTEQYLLAKQLAKPKEKIPIIVGDYGPMWVYPTSTFDCVVADPRKGSKMYGLKSYIEYQLTPTNTNRSVNHRYKHFDWLYERLLVKFGSAIPIPSLPDKQVTGRFEEEFIKMRMERLQAWMTRMCRHPVISESEVFQQFLNFRDEKEWKTGKRKAERDELAGVMIFSTMEPEAPDLDLVEIEQKCEAVGKFTKAMDDGVKELLTVGQEHWKRCTGPLPKEYQKIGKALQSLATVFSSSGYQGETDLNDAITEAGKTYEEIASLVAEQPKKDLHFLMECNHEYKGFLGCFPDIIGTHKGAIEKVKESDKLVATSKITLQDKQNMVKRVSIMSYALQAEMNHFHSNRIYDYNSVIRLYLEQQVQFYETIAEKLRQALSRFPVM
Turning to B3, the EGFR-L858R mean in experiment [1] was found to be 1.89. The Wt/L858R in experiment [2] was determined as 0.88. The molecule further registered an EGFR-Wt mean in experiment [3] of 1.67.
